Molecular target: T1, GST-ORAI1^CT (Homo sapiens, UniProt Q96D31)
T1 construct: cDNA encoding ORAI1 residues 259-301 was amplified using PCR; made in house; host or cells: E. coli BL21 (DE3), pGEX-4T-1
Assay: GST pull down assay with GST-ORAI1^CT (residues 259-301)
Assay type: binding
Conditions: SDS-PAGE, Coomassie staining
From the text: Recruitment of ORAI1 to puncta by full-length STIM 1 depends on a direct or indirect interaction of STIM 1 with the C-terminal cytoplasmic tail of ORAI134,51. Therefore the direct interaction of recombinant STIM 1 proteins was next examined with a bacterially expressed fusion protein, GST-ORAI^CT, containing the cytoplasmic tail of ORAI1, residues 259-301. STIM 1^CT and the other STIM 1 fragments, except for STIM 1 (233-463), bound to GST-ORAI1^CT immobilized on resin (FIG. 2B). Binding was dependent on recognition of ORAI^CT, since there was no binding to GST alone. Because all input and bound proteins on the gel was visualized with Coomassie Brilliant Blue staining and detected no other proteins, the current experiment is unambiguous proof of a direct protein-protein interaction between STIM 1^CT and ORAI1^CT.
The cDNAs encoding mouse STIM 1^CT fragments (residues 233-685, 233-666, 233-600, 233-531, 233-498, or 233-463) were amplified via PCR and cloned into the pProEX HTb vector (Invitrogen) between the BamHI and XhoI sites for expression as His-tagged proteins. For production of the C-terminal cytoplasmic tail of ORAI 1 as a GST fusion protein, coupled to GST through the flexible linker—GSGSRGSPEF—(SEQ ID NO: 1), cDNA encoding ORAI1 residues 259-301 was amplified using PCR and cloned into the pGEX-4T-1 vector (GE Healthcare) between the BamHI and NotI sites. […]

T1 sequence (Q96D31 259-301): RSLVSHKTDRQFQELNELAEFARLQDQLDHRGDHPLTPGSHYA

STIM1^CT: cytoplasmic region of STIM1, mouse residues 233-685, His-tagged recombinant protein expressed in E coli
binding to GST-ORAI1^CT immobilized on resin: bound
